# Publication PMC10786891, “Massively parallel profiling of RNA-targeting CRISPR-Cas13d”
# T1: EsCas13d, nuclease-dead (Eubacterium siraeum, UniProt B0MS50, R295A;H300A;R849A;H854A)
# T1 sequence: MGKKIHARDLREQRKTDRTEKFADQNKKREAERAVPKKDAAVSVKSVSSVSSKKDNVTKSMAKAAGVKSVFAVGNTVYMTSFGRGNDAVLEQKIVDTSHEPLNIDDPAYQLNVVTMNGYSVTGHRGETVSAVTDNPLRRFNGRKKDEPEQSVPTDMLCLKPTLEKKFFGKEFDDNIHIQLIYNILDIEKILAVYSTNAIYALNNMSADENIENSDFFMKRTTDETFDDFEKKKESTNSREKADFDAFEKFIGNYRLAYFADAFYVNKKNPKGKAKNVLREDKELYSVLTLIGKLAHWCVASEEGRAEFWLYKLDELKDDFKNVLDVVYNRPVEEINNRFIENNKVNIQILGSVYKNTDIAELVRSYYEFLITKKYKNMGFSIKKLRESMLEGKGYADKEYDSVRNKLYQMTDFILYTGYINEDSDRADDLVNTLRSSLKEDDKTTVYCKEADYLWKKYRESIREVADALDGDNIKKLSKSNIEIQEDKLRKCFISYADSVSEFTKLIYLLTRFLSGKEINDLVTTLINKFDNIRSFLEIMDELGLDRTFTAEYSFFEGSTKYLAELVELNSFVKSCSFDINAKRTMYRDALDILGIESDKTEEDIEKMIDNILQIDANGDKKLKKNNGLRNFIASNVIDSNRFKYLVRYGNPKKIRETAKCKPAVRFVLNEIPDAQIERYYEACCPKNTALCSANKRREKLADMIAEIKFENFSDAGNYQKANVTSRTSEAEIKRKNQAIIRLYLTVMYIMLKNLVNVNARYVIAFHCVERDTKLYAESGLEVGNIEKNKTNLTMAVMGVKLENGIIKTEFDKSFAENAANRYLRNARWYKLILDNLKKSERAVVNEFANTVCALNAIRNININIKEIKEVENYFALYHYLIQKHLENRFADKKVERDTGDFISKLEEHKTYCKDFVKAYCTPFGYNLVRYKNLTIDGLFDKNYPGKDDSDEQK
# B1: target 2 MT 5'PFS CUU 3'PFS CUU (mixed)
# RNA 1: CACCCGUGCAAAAUUGCAGGGGUCUAAAACCUUCUCCAAAUUGUUUCAUCCU
# RNA 2: GGGAAUGGAUCCACAUCUACGAAUUCCUUAGGAUGAAACAAUUUGGAGAAGCUUAGAUCGGAAGAGCACACGU
# B2: target 2 MT 5'PFS GUG 3'PFS UUU (mixed)
# RNA 1: CACCCGUGCAAAAUUGCAGGGGUCUAAAACCUUCUCCAAAUUGUUUCAUCCU
# RNA 2: GGGAAUGGAUCCACAUCUACGAAUUCGUGAGGAUGAAACAAUUUGGAGAAGUUUAGAUCGGAAGAGCACACGU
# B3: target 2 MT 5'PFS UGU 3'PFS UCU (mixed)
# RNA 1: CACCCGUGCAAAAUUGCAGGGGUCUAAAACCUUCUCCAAAUUGUUUCAUCCU
# RNA 2: GGGAAUGGAUCCACAUCUACGAAUUCUGUAGGAUGAAACAAUUUGGAGAAGUCUAGAUCGGAAGAGCACACGU
# B4: target 2 MT 5'PFS AAU 3'PFS UCG (mixed)
# RNA 1: CACCCGUGCAAAAUUGCAGGGGUCUAAAACCUUCUCCAAAUUGUUUCAUCCU
# RNA 2: GGGAAUGGAUCCACAUCUACGAAUUCAAUAGGAUGAAACAAUUUGGAGAAGUCGAGAUCGGAAGAGCACACGU
# B5: target 2 MT 5'PFS UAG 3'PFS ACG (mixed)
# RNA 1: CACCCGUGCAAAAUUGCAGGGGUCUAAAACCUUCUCCAAAUUGUUUCAUCCU
# RNA 2: GGGAAUGGAUCCACAUCUACGAAUUCUAGAGGAUGAAACAAUUUGGAGAAGACGAGAUCGGAAGAGCACACGU
# B6: target 2 MT 5'PFS UAG 3'PFS ACU (mixed)
# RNA 1: CACCCGUGCAAAAUUGCAGGGGUCUAAAACCUUCUCCAAAUUGUUUCAUCCU
# RNA 2: GGGAAUGGAUCCACAUCUACGAAUUCUAGAGGAUGAAACAAUUUGGAGAAGACUAGAUCGGAAGAGCACACGU
# B7: target 2 MT 5'PFS AUU 3'PFS CAC (mixed)
# RNA 1: CACCCGUGCAAAAUUGCAGGGGUCUAAAACCUUCUCCAAAUUGUUUCAUCCU
# RNA 2: GGGAAUGGAUCCACAUCUACGAAUUCAUUAGGAUGAAACAAUUUGGAGAAGCACAGAUCGGAAGAGCACACGU
# B8: target 2 MT 5'PFS CGG 3'PFS CGA (mixed)
# RNA 1: CACCCGUGCAAAAUUGCAGGGGUCUAAAACCUUCUCCAAAUUGUUUCAUCCU
# RNA 2: GGGAAUGGAUCCACAUCUACGAAUUCCGGAGGAUGAAACAAUUUGGAGAAGCGAAGAUCGGAAGAGCACACGU
# B9: target 2 MT 5'PFS GCG 3'PFS CGG (mixed)
# RNA 1: CACCCGUGCAAAAUUGCAGGGGUCUAAAACCUUCUCCAAAUUGUUUCAUCCU
# RNA 2: GGGAAUGGAUCCACAUCUACGAAUUCGCGAGGAUGAAACAAUUUGGAGAAGCGGAGAUCGGAAGAGCACACGU
# B10: target 2 MT 5'PFS UGU 3'PFS UCG (mixed)
# RNA 1: CACCCGUGCAAAAUUGCAGGGGUCUAAAACCUUCUCCAAAUUGUUUCAUCCU
# RNA 2: GGGAAUGGAUCCACAUCUACGAAUUCUGUAGGAUGAAACAAUUUGGAGAAGUCGAGAUCGGAAGAGCACACGU
# B11: target 2 MT 5'PFS UUA 3'PFS GCA (mixed)
# RNA 1: CACCCGUGCAAAAUUGCAGGGGUCUAAAACCUUCUCCAAAUUGUUUCAUCCU
# RNA 2: GGGAAUGGAUCCACAUCUACGAAUUCUUAAGGAUGAAACAAUUUGGAGAAGGCAAGAUCGGAAGAGCACACGU
# B12: target 2 MT 5'PFS UAG 3'PFS ACC (mixed)
# RNA 1: CACCCGUGCAAAAUUGCAGGGGUCUAAAACCUUCUCCAAAUUGUUUCAUCCU
# RNA 2: GGGAAUGGAUCCACAUCUACGAAUUCUAGAGGAUGAAACAAUUUGGAGAAGACCAGAUCGGAAGAGCACACGU
# B13: target 2 MT 5'PFS UUA 3'PFS GCC (mixed)
# RNA 1: CACCCGUGCAAAAUUGCAGGGGUCUAAAACCUUCUCCAAAUUGUUUCAUCCU
# RNA 2: GGGAAUGGAUCCACAUCUACGAAUUCUUAAGGAUGAAACAAUUUGGAGAAGGCCAGAUCGGAAGAGCACACGU
# B14: target 2 MT 5'PFS UCA 3'PFS UUA (mixed)
# RNA 1: CACCCGUGCAAAAUUGCAGGGGUCUAAAACCUUCUCCAAAUUGUUUCAUCCU
# RNA 2: GGGAAUGGAUCCACAUCUACGAAUUCUCAAGGAUGAAACAAUUUGGAGAAGUUAAGAUCGGAAGAGCACACGU
# B15: target 2 MT 5'PFS CAU 3'PFS CGA (mixed)
# RNA 1: CACCCGUGCAAAAUUGCAGGGGUCUAAAACCUUCUCCAAAUUGUUUCAUCCU
# RNA 2: GGGAAUGGAUCCACAUCUACGAAUUCCAUAGGAUGAAACAAUUUGGAGAAGCGAAGAUCGGAAGAGCACACGU
# B16: target 2 MT 5'PFS UCA 3'PFS UUC (mixed)
# RNA 1: CACCCGUGCAAAAUUGCAGGGGUCUAAAACCUUCUCCAAAUUGUUUCAUCCU
# RNA 2: GGGAAUGGAUCCACAUCUACGAAUUCUCAAGGAUGAAACAAUUUGGAGAAGUUCAGAUCGGAAGAGCACACGU
# B17: target 2 MT 5'PFS GGC 3'PFS UCU (mixed)
# RNA 1: CACCCGUGCAAAAUUGCAGGGGUCUAAAACCUUCUCCAAAUUGUUUCAUCCU
# RNA 2: GGGAAUGGAUCCACAUCUACGAAUUCGGCAGGAUGAAACAAUUUGGAGAAGUCUAGAUCGGAAGAGCACACGU
# B18: target 2 MT 5'PFS GGC 3'PFS UCC (mixed)
# RNA 1: CACCCGUGCAAAAUUGCAGGGGUCUAAAACCUUCUCCAAAUUGUUUCAUCCU
# RNA 2: GGGAAUGGAUCCACAUCUACGAAUUCGGCAGGAUGAAACAAUUUGGAGAAGUCCAGAUCGGAAGAGCACACGU
# B19: target 2 MT 5'PFS CGG 3'PFS CGC (mixed)
# RNA 1: CACCCGUGCAAAAUUGCAGGGGUCUAAAACCUUCUCCAAAUUGUUUCAUCCU
# RNA 2: GGGAAUGGAUCCACAUCUACGAAUUCCGGAGGAUGAAACAAUUUGGAGAAGCGCAGAUCGGAAGAGCACACGU
# B20: target 2 MT 5'PFS GAG 3'PFS UUU (mixed)
# RNA 1: CACCCGUGCAAAAUUGCAGGGGUCUAAAACCUUCUCCAAAUUGUUUCAUCCU
# RNA 2: GGGAAUGGAUCCACAUCUACGAAUUCGAGAGGAUGAAACAAUUUGGAGAAGUUUAGAUCGGAAGAGCACACGU
# B21: target 2 MT 5'PFS GGC 3'PFS UCA (mixed)
# RNA 1: CACCCGUGCAAAAUUGCAGGGGUCUAAAACCUUCUCCAAAUUGUUUCAUCCU
# RNA 2: GGGAAUGGAUCCACAUCUACGAAUUCGGCAGGAUGAAACAAUUUGGAGAAGUCAAGAUCGGAAGAGCACACGU
# B22: target 2 MT 5'PFS GGC 3'PFS UCG (mixed)
# RNA 1: CACCCGUGCAAAAUUGCAGGGGUCUAAAACCUUCUCCAAAUUGUUUCAUCCU
# RNA 2: GGGAAUGGAUCCACAUCUACGAAUUCGGCAGGAUGAAACAAUUUGGAGAAGUCGAGAUCGGAAGAGCACACGU
# B23: target 2 MT 5'PFS UAG 3'PFS ACA (mixed)
# RNA 1: CACCCGUGCAAAAUUGCAGGGGUCUAAAACCUUCUCCAAAUUGUUUCAUCCU
# RNA 2: GGGAAUGGAUCCACAUCUACGAAUUCUAGAGGAUGAAACAAUUUGGAGAAGACAAGAUCGGAAGAGCACACGU
# B24: target 2 MT 5'PFS CAU 3'PFS CGG (mixed)
# RNA 1: CACCCGUGCAAAAUUGCAGGGGUCUAAAACCUUCUCCAAAUUGUUUCAUCCU
# RNA 2: GGGAAUGGAUCCACAUCUACGAAUUCCAUAGGAUGAAACAAUUUGGAGAAGCGGAGAUCGGAAGAGCACACGU
# B25: target 2 MT 5'PFS GGU 3'PFS UAC (mixed)
# RNA 1: CACCCGUGCAAAAUUGCAGGGGUCUAAAACCUUCUCCAAAUUGUUUCAUCCU
# RNA 2: GGGAAUGGAUCCACAUCUACGAAUUCGGUAGGAUGAAACAAUUUGGAGAAGUACAGAUCGGAAGAGCACACGU
# B26: target 1 insA 3' of 8,insG 3' of 6 (mixed)
# RNA 1: CACCCGUGCAAAAAUGCAGGGGUCUAAAACUGAGCGGAUAACCUCUCUAUGG
# RNA 2: GGGAAUGGAUCCACAUCUACGAAUUCGUACCAUAGAGAGGUUAUACCGGCUCACCGAGAUCGGAAGAGCACACGU
# B27: target 1 G15A,C22A (mixed)
# RNA 1: CACCCGUGCAAAAAUGCAGGGGUCUAAAACUGAGCGGAUAACCUCUCUAUGG
# RNA 2: GGGAAUGGAUCCACAUCUACGAAUUCGUAACAUAGAAAGGUUAUCCGCUCACCGAGAUCGGAAGAGCACACGU
# B28: target 1 insC 3' of 9,insA 3' of 3 (mixed)
# RNA 1: CACCCGUGCAAAAAUGCAGGGGUCUAAAACUGAGCGGAUAACCUCUCUAUGG
# RNA 2: GGGAAUGGAUCCACAUCUACGAAUUCGUACCAUAGAGAGGUUACUCCGCUACACCGAGAUCGGAAGAGCACACGU
# Target: T1, EsCas13d, nuclease-dead
# Test: crRNA (strand 1, pre-loaded); Mg2+; 40 mM Tris-HCl pH 7.5, 150 mM NaCl, 6 mM MgCl2, 1 mM DTT, 0.1% Tween-20, 0.2 mg/ml BSA; 25 C; 10 min per concentration, then washed
# Details: tags: His6-TwinStrep-SUMO cleaved; N-terminal SNAP kept (SNAP-Surface 488); label: 3' end held by stalled T7 RNA polymerase
row,Binder,Kd
1,B1,4.7 ± 0.5 nM
2,B2,61 ± 13 nM
3,B3,17.7 ± 2.2 nM
4,B4,6.4 ± 1 nM
5,B5,3.12 ± 0.29 nM
6,B6,4.5 ± 0.5 nM
7,B7,7.2 ± 0.7 nM
8,B8,3 ± 0.3 nM
9,B9,11.9 ± 1.2 nM
10,B10,15.8 ± 2.5 nM
11,B11,14.7 ± 2.1 nM
12,B12,7.3 ± 2.1 nM
13,B13,37 ± 12 nM
14,B14,7.2 ± 1.1 nM
15,B15,3.8 ± 0.7 nM
16,B16,10.3 ± 2.3 nM
17,B17,18.9 ± 1.7 nM
18,B18,36 ± 9 nM
19,B19,3.81 ± 0.28 nM
20,B20,18 ± 2.2 nM
21,B21,20.6 ± 3.1 nM
22,B22,19.8 ± 3.1 nM
23,B23,3 ± 0.5 nM
24,B24,2.83 ± 0.35 nM
25,B25,15.9 ± 1.8 nM
26,B26,17.5 ± 0.9 nM
27,B27,20.6 ± 2.7 nM
28,B28,11.1 ± 0.6 nM
